Data on 6 molecules can be found in patent US7449443B2, “Method for stabilization of proteins using non-natural amino acids” (California Institute of Technology, priority 2000, dated 2008).

Usually Tm stands for the temperature at which the thermal transition is half complete. Usually Kd stands for the constant that tells how readily two partners part at equilibrium.

In data set [1] the test system is E. coli leucine auxotroph SG13009. In words: Analog incorporation assay: A1 expression in leucine auxotroph. Format: cell-based. The conditions noted are these: leucine-free medium supplemented with analog, western blot. The protocol: Analog Incorporation Assay. The expression vector pQE-A1, which contains the coding sequences for the protein A1 (FIG. 4A) was obtained from US Army Natick RD&E Center (Natick, Mass.). The E. coli leucine auxotroph SG13009 was obtained from Qiagen (Chatsworth, Calif.) and transformed with plasmids pREP4 and pQE-A1, to yield the expression host […] medium (30 ml) supplemented with 1 mM MgSO4, 1 mM CaCl2, […], 1 mg/L thiamin and the antibiotics ampicillin (200 mg/L) and kanamycin (25 mg/L) were inoculated with 1 ml of an overnight 2×YT culture of the expression strain. […] The supernatant was removed and the cell pellets were washed with 0.9% NaCl and sedimented (5000 g, 10 min, 4° C.). The washing and sedimentation steps were repeated three times to remove residual leucine. The washed cells were then resuspended in 31 ml of supplemented […] medium, without leucine. Aliquots (5 ml) were added to test tubes containing no leucine (negative control), L-leucine (20 mg/L, positive control), DL-trifluoroleucine (40 mg/L) or DL-hexafluoroleucine (40 mg/L). The cultures were grown for 10 min at 37° C., and isopropyl-β-D-thiogalactopyranoside (IPTG) was added to a final concentration of 1 mM. […] The whole cell lysate was analyzed by 15% SDS-PAGE. The proteins were detected by western blotting with an antibody specific for the N-terminal His-Tag of A1 (FIG. 4B).
Background: In western blotting, separated proteins are transferred to a membrane and probed.

Data set [2] is described as follows: CD thermal unfolding of GCN4-p1 coiled-coil peptides. Format: physicochemical. The method, then: (§1) Circular Dichroism (CD) Analysis. CD spectra were recorded on an Aviv 62DS spectropolarimeter (Lakewood, N.J.) in PBS buffer, pH 7.4. All peptide concentrations were determined by amino acid analysis of a stock solution (5 mg/ml). Experiments were performed in a rectangular cell with pathlength of 1 cm for low concentration samples and pathlength of 1 mm for high concentration samples. Spectra were scanned from 250 nm to 200 nm with data taken every 1 nm. The temperature of the solution was maintained by a thermostatically controlled cuvette holder (HP model 89101A). Temperature scans were performed from 0° C. to 100° C. in 1° C. steps. Three scans were performed on a single sample and averaged. Each data point was collected after 30 seconds of thermal equilibration at the desired temperature. Urea titration scans were performed manually starting with the 8 M concentrated sample followed by serial dilution to the desired urea concentration. At each concentration, the sample was allowed to equilibrate for 5 min before recording the CD signal.
(§2) The analysis of CD thermal melting data was performed according to a previously described procedure using a two-state model (Schneider, J. P.; Lear, J. D.; DeGrado, W. F. J. Am. Chem. Soc. 1997, 119, 5742-5743). Temperature-dependent ellipticity data for each protein at different concentrations were fitted globally using a non-linear least-squares fitting procedure supplied with the Origin 6.0 software. For wild-type A1, the concentrations used for curve fitting were 10 and 100 μM, while 2 and 100 μm were used to fit data for the 92% fluorinated A1. The thermodynamic quantities Tm, ΔHm, ΔCp and Kd were parameters of the fitting procedure and are reported in the 1 M standard state. The free energy of folding at any temperature is given by equation 1. ΔG°=ΔHm(1−T/Tm)−ΔCp((Tm−T)+T1n(T/Tm) (1)
The thermal stabilities of the coiled-coil dimers of Leu-GCN4-p1 and Tfl-GCN4-p1 were examined by CD spectroscopy (FIG. 2B). A significant increase in the thermal stability of Tfl-GCN4-p1 as compared to Leu-GCN4-p1 is reflected in an elevation of the thermal denaturation temperature from 48° C. to 61° C. The 13° C. increase in Tm is remarkable in view of the fact that no increase in the thermal stability of GCN4-p1 has been reported based solely on substitution of the leucine residues at the d-positions. […] As expected for a monomer-dimer equilibrium, the denaturation curves depend on the peptide concentrations, and their midpoints shift to higher temperature as the concentrations of peptides are increased (FIG. 2C). The thermodynamic changes associated with the transition (folded dimer to unfolded monomers) is calculated from the melting curves by fitting the data to a monomer-dimer equilibrium (J. P. Schneider, J. D. Lear and W. F. DeGrado, J. Am. Chem. Soc. 119, 5742, 1997). Global analysis of the thermal unfolding curves at two different concentrations, approximately 85 μM and 3 μM, gave a calculated ΔH° of 60.2 kcal mol^−1, Tm of 385.4 K and ΔCp of 530 cal mol^−1 K^−1 for Tfl-GCN4-p1 (1 M standard state); the corresponding values for Leu-GCN4-p1 are 70.3 kcal mol^−1, 365.6 K and 740 cal mol^−1 K^−1 respectively.

Data set [3] addresses LeuRS (Escherichia coli, UniProt P07813). In words: Level of Tfl incorporation versus leucine concentration in expression medium. The conditions noted are these: estimated from 50% substitution at leucine 8 mg/L (50 μM) and Tfl (DL) 100 mg/L (540 μM). Format: cell-based, E. coli. The protocol:
Normal leucine concentration in expression medium is 40 mg/L. The extent of incorporation is determined by amino acid analysis.
Protein Expression and Purification. M9 medium (1 L) supplemented as described above was inoculated with 30 ml of fresh overnight culture of the expression strain. After the culture had grown to OD600 of 1.0, it was subjected to centrifugation and washing procedures as described above. The cell pellet was suspended in 1 L M9 medium supplemented with trifluoroleucine (100 mg/L) and leucine in appropriate concentrations. IPTG was added after 10 min to induce protein expression. The expression of protein was monitored by removing an aliquot (1 ml) of the culture every hour and analyzing by SDS-PAGE. Cells were collected after 3 hr by centrifugation (5000 g, 15 min, 4° C.). The pellets were resuspended in 20 ml of buffer A and stored at −80° C. overnight. […] Extent of trifluoroleucine incorporation was determined by amino acid analysis (DNA/Protein Analysis Facility, Cornell University) and MALDI mass spectrometry (Protein/Peptide Micro Analytical Laboratory, Caltech).
The degree of substitution is determined through the diminution of leucine mole fractions from amino acid analysis (AAA). […]

Data set [4] concerns the target oligonucleotides containing the AP-1 binding site. Nature of the data set: Mobility shift (gel-retardation) assay, AP-1. The conditions noted are these: densitometry analysis of mobility shift assay. The source says:
(§3) (FIG. 3B) Leu-bZip binds to both the AP-1 and CREB binding sites with equal affinities even though the spacing between the half-sites of DNA is different.

Data set [5] concerns the target oligonucleotides containing the CREB binding site. In words: Mobility shift (gel-retardation) assay, CREB. The conditions noted are these: densitometry analysis of mobility shift assay.
Excerpt: as §3

Data set [6] relates to nonspecific sequence (NON) oligonucleotides. Nature of the data set: Mobility shift (gel-retardation) assay, nonspecific sequence. It is filed as binding.
Excerpt: as §3

A short description of data set [7]: CD thermal denaturation of A1 proteins with two-state global fitting. Format: physicochemical. The conditions noted are these: for ΔCp (1M) heat capacity change upon folding: 1M standard state, uncertainty 120; for ΔHm (1M) enthalpy of folding: at midpoint temperature, extrapolated to 1M standard state, uncertainty 4.8; for Tm (1M): extrapolated to 1M standard state by non-linear least square fit, uncertainty ± 1.5° C.; for Tm (10 μM): midpoint of thermal denaturation curve at 10 μM protein. The method, then: Insert: The thermal melting temperature (Tm) plotted as a function of level of incorporation. Tm is defined as the temperature at which 50% of the peptide has unfolded. The stability of the protein increases with increasing level of 2trifluoroleucine substitution. (10 μM protein concentration, PBS buffer, pH 7.4).
as §1, §2
Global thermodynamic fitting was used to obtain the thermodynamic quantities associated with the monomer to dimer transition for A1-WT and FA1-92. The intermediate level fluorinated proteins, FA1-17 and FA1-29 were not fitted using the procedure because the heterogeneity of the samples would not be described accurately by the two-state model. The presence of a heterogeneous population can be seen from the broadening of the thermal melting curves at substitution rates of 17 and 29%. However, even for the nearly completely substituted FA1-92, the protein sample was still a mixed population because Tfl was used as an equal molar mixture of (2S, 4S) and (2S, 4R) diastereomers. The free energy of unfolding for FA1-92 was 2.4 kcal/mol more favorable than A1-WT at 37° C., which corresponded to 0.4 kcal/mol of stabilizing energy per Tfl molecule involved at the helix interface. Considering the large number of leucines packed in the hydrophobic core of proteins, the additive stabilizing effects of Tfl can be quite substantial.

A short description of data set [8]: Urea titration of A1 proteins by CD. It is filed as physicochemical. The conditions noted are these: 0° C., 10 μM protein, PBS, pH 7.4. The method, then: The fraction of unfolded protein is plotted against increasing urea concentration. Insert: The urea concentration at which 50% of protein is denatured is plotted against the extent of fluorination. (10 μM protein concentration, PBS buffer, pH 7.4).
as §1

Setting [9] is: global analysis of thermal unfolding curves, 1 M standard state.

Chain of LeuRS (P07813 whole entry): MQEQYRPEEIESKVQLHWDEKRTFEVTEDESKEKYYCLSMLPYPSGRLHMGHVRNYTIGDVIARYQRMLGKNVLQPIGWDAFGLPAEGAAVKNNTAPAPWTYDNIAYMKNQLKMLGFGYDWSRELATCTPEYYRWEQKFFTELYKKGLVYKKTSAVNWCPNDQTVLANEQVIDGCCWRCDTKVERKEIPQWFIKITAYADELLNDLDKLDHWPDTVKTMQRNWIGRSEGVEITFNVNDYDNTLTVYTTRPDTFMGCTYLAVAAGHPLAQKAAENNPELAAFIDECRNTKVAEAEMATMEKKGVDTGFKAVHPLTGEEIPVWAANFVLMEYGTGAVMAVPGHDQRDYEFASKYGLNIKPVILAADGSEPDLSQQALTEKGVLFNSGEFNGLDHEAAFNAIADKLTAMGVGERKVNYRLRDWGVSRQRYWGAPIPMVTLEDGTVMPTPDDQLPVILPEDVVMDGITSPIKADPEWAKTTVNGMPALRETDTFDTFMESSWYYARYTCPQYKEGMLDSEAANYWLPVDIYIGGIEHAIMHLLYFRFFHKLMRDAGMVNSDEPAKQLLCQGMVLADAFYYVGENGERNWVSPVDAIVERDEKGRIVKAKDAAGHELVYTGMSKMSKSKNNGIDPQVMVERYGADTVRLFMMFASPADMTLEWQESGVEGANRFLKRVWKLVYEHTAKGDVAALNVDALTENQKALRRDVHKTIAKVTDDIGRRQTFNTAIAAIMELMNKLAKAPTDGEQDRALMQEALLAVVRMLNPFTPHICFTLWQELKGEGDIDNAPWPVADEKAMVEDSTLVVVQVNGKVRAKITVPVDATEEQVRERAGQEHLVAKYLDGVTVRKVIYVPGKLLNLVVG

Turning to `N[C@@H](CC(C(F)(F)F)C(F)(F)F)C(=O)O` [Hfl, 5,5,5,5′,5′,5′-hexafluoroleucine], the “ability to support protein synthesis (A1 expression)” value in data set [1] was “does not support measurable protein synthesis”.

With “Leu-GCN4-p1: wild type form of the leucine zipper peptide GCN4-p1, not acylated at the N-terminus [reference compound]”, the “thermal denaturation temperature (Tm)” value in data set [2] (CD spectroscopy, coiled-coil dimers) worked out at 48 °C. In data set [2] (global analysis of thermal unfolding curves at approximately 85 μM and 3 μM, 1 M standard state), the “ΔH°” value is 70.3 kcal/mol. Further, in data set [2] (setting [9]), the Tm turned out to be 92.5 °C and the ΔCp was found to be 740 cal mol^−1 K^−1.

On to `CC(C[C@H](N)C(=O)O)C(F)(F)F` (stereo partly shown) [Tfl, 5,5,5-trifluoroleucine], for which the “ability to support protein synthesis (A1 expression)” value in data set [1] is “support protein synthesis”. Also, in data set [3], the “specificity for LeuRS compared to leucine” value is reported as “reduced five times”.

With “Leu-bZip: wild-type 56 amino acid segment (residues 226-281) of the eukaryotic transcription factor GCN4”, the Kd in data set [4] was 12.8 ± 1 nM; in data set [5] it was 4.8 ± 0.5 nM. For the same molecule, the “recognition of nonspecific (NON) sequences” value in data set [6] is “lack of protein-bound DNA”.

B1: FA1-92: trifluoroleucine-substituted A1 protein, 92% replacement of leucine by amino acid analysis (protein)
chain: MRGSHHHHHHGSMASGDLENEYAQLEREVRSLEDEAAELEQKVSRLKNEIEDLAEIGDLNNTSGIRRPAAKLN
For B1, in data set [7] (10 μM protein, PBS, pH 7.4), the “Tm elevation compared to A1-WT” value amounted to 13 °C. Besides, in data set [7], the “ΔCp (1M) heat capacity change upon folding” value is on record as −272 cal/mol-K, the “ΔHm (1M) enthalpy of folding” value was -77.0 kcal/mol and the “Tm (1M)” value was 116 °C. Moreover, in data set [7] (at 37° C.), the “free energy of unfolding more favorable than A1-WT” value was determined as 2.4 kcal/mol and the “stabilizing energy per Tfl molecule involved at the helix interface” value is 0.4 kcal/mol. Moreover, the “Tm (10 μM)” value in data set [7] (PBS, pH 7.4) was 67 °C. Further, the “resistance to thermal and chemical denaturation” value in data set [7] (thermal and chemical (urea) unfolding studies) was “highly resistant”. In data set [8], the “Curea, 50% (Cm), midpoint urea denaturation concentration” value (“Curea, 50% (Cm)” for short) is 7 M.

B2: A1-WT: wild type leucine-zipper protein A1 with eight leucine residues, expressed in E. coli (protein)
chain: B1 chain
Regarding B2, in data set [7], the “ΔCp (1M) heat capacity change upon folding” value is given as −252 cal/mol-K, the “ΔHm (1M) enthalpy of folding” value was -70.9 kcal/mol and the “Tm (1M)” value was 103 °C. For the same molecule, in data set [7] (PBS, pH 7.4), the “Tm (10 μM)” value is 54 °C. Also, the “Curea, 50% (Cm)” value in data set [8] was 2.7 M. The “Curea, 50% (Cm)” value in data set [8] (listed as Al-WT) was determined as 2.8 M.
